# Experiment: soluble on expression in E. coli; label from the status in PepcDB or PDB records
row,Sequence,soluble on expression in E. coli
1,MAKINELLRESTTTNSNSIGRPNLVALTRATTKLIYSDIVATQRTNQPVAAFYGIKYLNPDNEFTFKTGATYAGEAGYVDREQITELTEESKLTLNKGDLFKYNNIVYKVLEDTPFATIEESDLELALQIAIVLLKVRLFSDAASTSKFESSDSEIADARFQINKWQTAVKSRKLKTGITVELAQDLEANGFDAPNFLEDLLATEMADEINKDILQSLITVSKRYKVTGITDSGFIDLSYASAPEAGRSLYRMVCEMVSHIQKESTYTATFCVASARAAAILAASGWLKHKPEDDKYLSQNAYGFLANGLPLYCDTNSPLDYVIVGVVENIGEKEIVGSIFYAPYTEGLDLDDPEHVGAFKVVVDPESLQPSIGLLVRYALSANPYTVAKDEKEARIIDGGDMDKMAGRSDLSVLLGVKLPKIIIDE,soluble
2,MAHHHHHHMRAEIPGVVPAVVSQVSEHQLPHLYPRHTAVTDSTALPREKSTLQRTDTTDSQLFSLADLQLARGNTRRPSRSRPTSPIRKDRIPRPPSVEFDVHLEVPRPHIRVSALPKHVMWPLPIPLPNLGNTCYMNSVVQCLRQSPSLALALEQCQLNAESHPAAAAMLNFFRMSEGDPKEFLVTFKSEAAKYNDEFKDFTQADAHEFLRTFLSVVHNEINTAPRAKLHIDDMGYVGKEDEETAFGMWRDQFACFDKSPIYDLFGGTTLGTCFCNSCENSSRTFEAFLDLSLPIGHEMPFGANLEAILQANFVEGKAEKMDGSNRIYCSRCKRLRSGSRCVVVRQWPKLLVLHLKRFDEYGKKNLVNVIYPETFMTGGEKSLRYSLYGVLMHSGTEMSGHYTSYVRVAFGEWYLCNDGAITPSRSVDVMQELEKAYILFYAEVPQVEPTFF,not soluble
3,NEIKKILIMPTWRDWLNSTYAFDNSDYMKHYLSLINSPKLQALINEYDIEINFYPHYRSQMFFKSFLTDNKSDINYIELGDKTVQELLVEHDLLITDYSSVSFDFSYMKKPVIFYHFDVKKFFRKGILRSIKDTFIGDIAHTEKELISLIEDNIKNPKNMEYQNLSSIFDYTDHHNNQRVYHSILDLIQDNT,not soluble
4,MSLEGFIEGSSLTVLNRNFYFNRDNRDSTAPTYNSGKGNTNGYSEAWAHAIISKFNSGFTQGTVGFGVDAFAMIGLKLDTGDGRNGGRSSFDVLPVDNKGEARDEYTKVGGAAKVRLFDTIVKVGDVFPSTPVVASGDSRLLPESFRGVTVENTSIQGLTLQGGRLHAMSQPVSSNLNDNFVTFYGGPVNSPWIGYGGGDYSINDNWTVSVYASQLKDVWNQYYAGTSVVYPLSDDLALIGGFNYYKAVDEGKKRLGEFDNNIWSAKVGVRYGAHTLALSHQRNNGDDDFDYLRQSDSIFVDNSIQYSDFNSPKERSWMLRYDLNFTSYGIPGLTFMTRYARGSGADYSNANQFYMRTDDNGNPLDNQKRWERDVEVKYVVQTGPAKDLSFRLRQATTRATAFESDLDETRVIIEYPLSILEGHHHHHH,soluble
5,QTGGSFFEPFNSYNSGTWEKADGYSNGGVFNCTWRANNVNFTNDGKLKLGLTSSAYNKFDCAEYRSTNIYGYGLYEVSMKPAKNTGIVSSFFTYTGPAHGTQWDEIDIEFLGKDTTKVQFNYYTNGVGGHEKVISLGFDASKGFHTYAFDWQPGYIKWYVDGVLKHTATANIPSTPGKIMMNLWNGTGVDDWLGSYNGANPLYAEYDWVKYTSN,soluble
6,MGSDKIHHHHHHMNAPAGGLSPALTPEAVADTTAMATETHILNPRFYTTDFDELDRVDVTPVRKDWDALIAEMKADPNKAHFKKTEAWDRIDWDGMDPALRVEFIDFLVSSCTAEFSGCVLYKEMKRRGSNPDIRELFNYMARDEARHAGFINDALREAGVAVNLGFLTKAKKYTYFRPKFIYYATYLSEKIGYARYITIYRHLEANPEHRFHPIFKWFKEWCNDEFRHGEAFALLMKTDPKLTDTTVNRLWIRFFLTAVYSTMWVRDHARPEFHKALGVDIDWYDQEVYRKTSEIARQIFPVELDIDHPRWKPALRRMNEAFLRIDRGTRRGGIAGRLEKALGGAQALAAFVSLYTIPVRTHTLPENVRLEPSY,not soluble
7,MAHHHHHHMLFVDLLNGVNVNYKRKVPICKRPTRSAEYLSNQPLHANRNVEQTSSKNGEASITNHEDEKDENILQQYIYTLSHLTIFDVDRDKSTPLNIALLLKACLASHNYIKNVEIFTSNVKNKEICSFIYERRNDFDAFFKLHVMKYIDFFGNPQIVETLKSSVDNKEMYQRELEIFNQIDGETKLRKDLLEDILFECTRLNKIIQYSLAVNNFNLFSPTVLLKLFTYFKHYGVYYSIFLNNIKKVKYYYQTKDIREEDKRKIEKIVDHYLLTLDRFNHMYEAGHVTL,not soluble
8,MGSDKIHHHHHHGCEKEKSHTVLELFSESQSLSPKKDFYVNEDSIAIIEGLSCDGKNLIVNDYHSGCCYTLFDKKSGEYIARFGTIGQGPAELPSPCYGYLTESDFTVFDDQTRIVMKYSLDSLRNSRKKDGSPVRLAQYKIPEAQISKLIAIDDTTFLCAGTYKSRYQYLLFNKNDSVLDYGVDVYNAADSAFQTYTRYLSNQGNLVMNPEKHTFAGSINFSSNIDFFEIVNNKIELIKSLRLGDPINKPVNEEGIYYVDLTENTQTGYIDLSATSKYVYALYSDKKMYENNRKSDTVLVFDWDGNPIKKYSLDTDAYYIAVDSTQQSLFAAVKNSSSGWKIICYALD,not soluble
9,SKNAVANSSSSEPAVSQTENASSSLEHENKARELASDAQANKTQELAPDSRQESLAPQEPFIDINRMLDSLSGDEGAVRMLLEVFIQDHAEDGSKLHKLLNEDIDNAQRAAHSLKGVSGSLGAMPLHYISGEIELLIKQGKEVPDNKLCQLRDVLQQTTLFAEKVLNSEKIREVLTD,not soluble
10,MGSDKIHHHHHHMTVLHSVDFFPSGKAPVAIEPRLPQAAFPEHHHDFHEIVIVEHGTGIHVFNGQPYTISGGTVCFVRDHDRHLYEHTDNLCLTNVLWRSPDAFQFLAGLDQLLPQEQDGYYPSHWRVNQSVLQQVRQLVGLMERAGDGMDAPAVANREILFMQLLVLLRRSSLMEGATNNDAKLNQLMAWLEDHFAEEVCWEAVAEQFSLSLRTLHRQLKQHTGLTPQRYLNRLRLIKARHLLRHSDHSVTEIAYRCGFGDSNHFSTLFRREFNWSPRDIRQGRDAIIQ,not soluble
11,MPNTTNKDYTKYSQRQLFSFLNSIKTKQKRALEKLKEIQAQKQRIKKALQFKALNLTENGYTIEEEREILARAKDTKNRLCFKSIEDFKKHCENL,not soluble
12,MGSDKIHHHHHHMKKLYILAIAIAVTTFSCKKNKEDEPAPSGSEQAKVVENYANIVYATYDDALITAKNLRAKAADFVASPSEAGLEEVRAAYIASRTPYIQSEAFRFYSGPIDQDLGGGLTIESSINSWPLEEVYIDYVVGDANAGIINDVAHFPTIDKNVILENNQKEGAGENSVSSGYHAVEFLLWGQDLSETGPGDRKYTDYLVNSDDATNLNQARRGQYLLACIDLIIDNLQTLKEAWKSGNASNYRAGFIADPKGSIGNFLKGVIGYADDELSVERMQVALDTEGDAERQEQEQSCFSDQTYNDIILGQKGIKNVYVGEYVRIDGTIVSGMSVSDLVKAADPKLDSTVRAKIYDTDIKVAAIHAPFDNEILTANTAGTIRVQNAINALHVEAAQYKNAANKIGYLY,not soluble
13,MGSSHHHHHHSSGRENLYFQGMVDADGIYYLGPEGSFTHEAASLFKGKDLKAESTISLVFKRVYERESSIGIVPIENSLEGPVNETLDNLYNYDNIYVIGEIEKKIELVLAARSDNLSQIKRIYSHPHAFNEAREKLKELGFNEYIPVESTSKAAKIVSQDSEAAAICSNFAAKLYNLKVLITISSHNNYTRFIVLSKEMNSNGNKSMILFTVPHKPGALYKVLQVFYEYNINISMIYSRPLKSIPWQYYFYLEYEGGISNREFIEKLVKSTSVLKIKGSFSKLNNDPGF,soluble
14,FNQTYQFTGLLNPDGTVIEANDAALDFGGLDRDEIVGKHFADIPWWSHSDTERDNVRDALERAASGEFVRYETEVRGVDGLGTIDFSVKPVTDQDENVTLLVVEGRDIT,not soluble
15,MVYLKGQIRKALSGFYYVYADGETYQTRARGNFRNRKITPLVGDEVLFESDNLTDGYVLEILPRRNELVRPPVANVDLGVVVMSMVSPNFSFNLLDRFLVSLEYKDIEPVIYLTKVDLLDEPQRQQVTEIKQIYEALGYAVIASEDVEATKELERFFPERLTVFMGQSGAGKSTLLNQISPELQLATAEISQSLGRGKHTTRHVELIPLYDGLVADTPGFSAIDFLEMEAVELPKQFPEFVAAASHCKFRECMHHKEPGCEVKRQVEAGTIATSRYENYLQFLMEIENRRPVYKKKS,not soluble
16,MGSDKIHHHHHHMNAIAKHKENLLLDGFTIIDDIYSDEEVQQILAVIENADMSNETFRKSSDLFAIRQFLKEIPEAKELIYNKNLKKVGAELFGTDFFTVKSIYFDKPETSNWYVAYHQDLTISVDTKIDLAGFGPWTVKQNQFAVQPPLEILKNIFTIRIHLDDTNEENGALKVVPGSHAKNIYRPETIDWSVEKEISCNVKKGGIMIMKPLLLHSSGRTTNNKKRRVIHIEFSNQELPVELNWAERLN,not soluble
17,GTKQEKTILNMARFIRSQALTILEKANELDADEIADIAESIHDHADEIYRSALARFGDDGENL,soluble
18,TSKCTIIPGSGFRNDEGKYEIIADKCIEADYPQKDEVAAAAYMNKYVEEVILRAPEQWMWLHKRYKTMQDENEPKGIRYK,not soluble
19,SNAMRKDETSNTSPDISVAQPASALRYHLRPPRRNDGAAIHQLVSECPPLDLNSLYAYLLLCEHHAHTCVVAESPGGRIDGFVSAYLLPTRPDVLFVWQVAVHSRARGHRLGRAMLGHILERQECRHVRHLETTVGPDNQASRRTFAGLAGERGAHVSEQPFFDRQAFGGADHDDEMLLRIGPFTHPPH,soluble
20,MTQTLLAIENLSVGFRHQQTVRTVVNDVSLQIEAGETLALVGESGSGKSVTALSILRLLPSPPVEYLSGDIRFHGESLLHASDQTLRGVRGNKIAMIFQEPMVSLNPLHTLEKQLYEVLSLHRGMRREAARGEILNCLDRVGIRQAAKRLTDYPHQLSGGERQRVMIAMALLTRPELLIADEPTTALDVSVQAQILQLLRELQGELNMGMLFITHNLSIVRKLAHRVAVMQNGRCVEQNYAATLFASPTHPYTQKLLNSEPSGDPVPLPEPASTLLDVEQLQVAFPIRKGILKRIVDHNVVVKNISFTLRAGETLGLVGESGSGKSTTGLALLRLINSQGSIIFDGQPLQNLNRRQLLPIRHRIQVVFQDPNSSLNPRLNVLQIIEEGLRVHQPTLSAAQREQQVIAVMHEVGLDPETRHRYPAEFSGGQRQRIAIARALILKPSLIILDEPTSSLDKTVQAQILTLLKSLQQKHQLAYLFISHDLHVVRALCHQVIILRQGEVVEQGPCARVFATPQQEYTRQLLALS,not soluble
21,MTIPEQNNNPIVEISIPVSTQQALEKVNATKSAWLEARRQQKAAADNIATIRQRRAEMEATTNALNEEWRTLFRESQGVVSKEMKKLRTEIALGRETLEDFDELLAAQESENALLPQEAAELAGKYIHAHDTLVGIRAKQIWEDFMQSHGKALIQTLSLLKSTMGREASAVVGVVHSVNDPDTLLKDFIHKHITRPALTNDAMPEQDPVFKLAGVAPDYAARLDFSNKLSPAAMHKMKVRQERAEKEKAV,soluble
22,MGSDKIHHHHHHMSEIKNRIDFVYIFDVQDGNPNGDPDAGNLPRVDAETGMGLVTDVCLKRKVRNYVQVAKGLEDGYDIFIKEKAVLNTLIDKAHDDSEVKNAKDKTDAARRFMCKNYFDVRTFGAVMSTGKNAGQVRGPIQFTFARSVDPIAAAEHSITRMAVATDAEAKKQSGDNRTMGRKATVPYGLYICHGFISANLAQQTGFSEEDLALFWEALKNMFDMDRSAARGLMSAQKLIVFKHDSVLGNAPANKLFDLVKVEKVCDGAPRSFGDYHVTIDKEHVPSNVTVEELI,not soluble
